Source: patent publication US20220305003A1, “METHODS OF TREATING CANCER WITH AN INHIBITOR OF ZNF827” (CHILDREN'S MEDICAL RESEARCH INSTITUTE, priority 2019, published 2022)

B1: ZNF827 full length (human zinc finger protein ZNF827) (other)
chain: MPRRKQEQPKRLPSHVSRQEEAEGELSEGEHWYGNSSETPSEASYGEVQENYKLSLEDRIQEQSTSPDTSLGSTTPSSHTLELVALDSEVLRDSLQCQDHLSPGVSSLCDDDPGSNKPLSSNLRRLLEAGSLKLDAAATANGRVESPVNVGSNLSFSPPSHHAQQLSVLARKLAEKQEQNDQYTPSNRFIWNQGKWLPNSTTTCSLSPDSAILKLKAAANAVLQDKSLTRTEETMRFESFSSPFSSQSASSTLAALSKKVSERSLTPGQEHPPPASSFLSLASMTSSAALLKEVAARAAGSLLAEKSSLLPEDPLPPPPSEKKPEKVTPPPPPPPPPPPPPPPQSLELLLLPVPKGRVSKPSNSASEEESGKPFQCPICGLVIKRKSYWKRHMVIHTGLKSHQCPLCPFRCARKDNLKSHMKVHQHQDRGETFQCQLCPFTSSRHFSLKLHMRCHQHFLRTEAKVKEEIPDPDVKGSPHLSDSACLGQQREGGGTELVGTMMTSNTPERTSQGGAGVSPLLVKEEPKEDNGLPTSFTLNAADRPANHTKLKDPSEYVANSASALFSQDISVKMASDFLMKLSAANQKEPMNLNFKVKEEPKEGESLSTTLPRSSYVFSPESEVSAPGVSEDALKPQEGKGSVLRRDVSVKAASELLMKLSAESYKETQMVKIKEEPMEVDIQDSHVSISPSRNVGYSTLIGREKTEPLQKMPEGRVPPERNLFSQDISVKMASELLFQLSEKVSKEHNHTKENTIRTTTSPFFSEDTFRQSPFTSNSKELLPSDSVLHGRISAPETEKIVLEAGNGLPSWKFNDQLFPCDVCGKVFGRQQTLSRHLSLHTEERKYKCHLCPYAAKCRANLNQHLTVHSVKLVSTDTEDIVSAVTSEGSDGKKHPYYYSCHVCGFETELNVQFVSHMSLHVDKEQWMFSICCTACDFVTMEEAEIKTHIGTKHTGEDRKTPSESNSPSSSSLSALSDSANSKDDSDGSQKNKGGNNLLVISVMPGSQPSLNSEEKPEKGFECVFCNFVCKTKNMFERHLQIHLITRMFECDVCHKFMKTPEQLLEHKKCHTVPTGGLNSGQW
notes: Co-IPs used lysates of human cells (U-2 OS, HT1080) from overexpression experiments; also called Myc-DDK-tagged ZNF827 full length; pCMV6 Myc-DDK-tagged ZNF827 (RC221405); not shown: Myc-DDK tag of the pCMV6 vector
B2: ss pentaprobe 3 (ssDNA)
DNA: CGCTCTATTCTACTGTCCTGTGCATTCAATCGTTGAGTTCGATCTAGTCTCGTCTAACCCTCCCCTGCTCCGCTGGTCTGGCCTCGCCTATCCTACCCAT
B3: ss pentaprobe 9 (ssDNA)
DNA: ATGGGTAGGATAGGCGAGGCCAGACCAGCGGAGCAGGGGAGGGTTAGACGAGACTAGATCGAACTCAACGATTGAATGCACAGGACAGTAGAATAGAGCG

Experiments:
[1] = target: T1, topoisomerase 2-binding protein 1 (TOPBP1) (human, UniProt Q92547 1-1522); assay: co-IP with Myc antibody, Western blot
T1 construct: TOPBP1 in lysates of human cells, co-immunoprecipitated with Myc antibody
T1 sequence (Q92547 whole entry): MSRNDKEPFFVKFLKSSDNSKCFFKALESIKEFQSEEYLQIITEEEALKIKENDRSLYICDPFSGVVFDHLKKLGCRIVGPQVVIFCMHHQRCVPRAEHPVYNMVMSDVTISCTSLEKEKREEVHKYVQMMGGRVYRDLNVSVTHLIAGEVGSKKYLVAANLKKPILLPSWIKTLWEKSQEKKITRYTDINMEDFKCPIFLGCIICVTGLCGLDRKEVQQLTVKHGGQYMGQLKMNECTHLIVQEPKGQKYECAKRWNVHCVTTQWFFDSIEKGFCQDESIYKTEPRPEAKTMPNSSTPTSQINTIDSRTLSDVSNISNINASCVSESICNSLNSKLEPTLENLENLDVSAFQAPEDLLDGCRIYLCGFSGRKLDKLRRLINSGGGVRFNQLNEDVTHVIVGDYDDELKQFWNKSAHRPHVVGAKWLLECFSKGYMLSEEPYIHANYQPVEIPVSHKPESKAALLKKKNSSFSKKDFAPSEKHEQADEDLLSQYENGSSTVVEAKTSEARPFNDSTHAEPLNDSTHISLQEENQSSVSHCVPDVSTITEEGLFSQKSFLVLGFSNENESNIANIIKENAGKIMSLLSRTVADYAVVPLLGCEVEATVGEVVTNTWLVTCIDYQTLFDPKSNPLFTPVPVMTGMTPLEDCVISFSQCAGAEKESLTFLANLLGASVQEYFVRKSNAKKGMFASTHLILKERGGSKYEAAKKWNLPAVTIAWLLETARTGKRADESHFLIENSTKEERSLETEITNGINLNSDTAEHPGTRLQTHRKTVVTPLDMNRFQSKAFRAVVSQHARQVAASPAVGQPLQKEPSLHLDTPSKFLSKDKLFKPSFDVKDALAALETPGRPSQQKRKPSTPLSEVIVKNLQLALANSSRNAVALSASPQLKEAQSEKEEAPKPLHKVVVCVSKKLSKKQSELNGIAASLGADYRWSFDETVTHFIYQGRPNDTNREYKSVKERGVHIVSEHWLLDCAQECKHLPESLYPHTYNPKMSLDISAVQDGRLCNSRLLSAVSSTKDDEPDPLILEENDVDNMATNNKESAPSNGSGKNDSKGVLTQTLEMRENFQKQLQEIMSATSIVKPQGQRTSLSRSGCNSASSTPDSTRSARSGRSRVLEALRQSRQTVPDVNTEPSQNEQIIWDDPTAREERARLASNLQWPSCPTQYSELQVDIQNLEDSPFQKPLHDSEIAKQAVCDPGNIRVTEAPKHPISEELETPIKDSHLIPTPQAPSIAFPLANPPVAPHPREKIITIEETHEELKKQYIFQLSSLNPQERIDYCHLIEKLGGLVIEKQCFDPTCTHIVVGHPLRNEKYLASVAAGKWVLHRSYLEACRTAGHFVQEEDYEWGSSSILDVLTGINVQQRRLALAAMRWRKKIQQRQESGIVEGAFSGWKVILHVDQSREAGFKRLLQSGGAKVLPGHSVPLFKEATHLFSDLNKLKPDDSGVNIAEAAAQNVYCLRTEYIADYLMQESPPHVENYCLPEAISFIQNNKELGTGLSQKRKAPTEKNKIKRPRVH
Description: Resuspended cells were lysed by incubation with rotation for 1 hour at 4° C. For Benzonase treatment to remove DNA, samples were incubated in the lysis buffer described above supplemented with 25 U Benzonase nuclease (Novagen, Merck Millipore) for 2 hours at 4° C. Lysates were subjected to centrifugation at 13,000 rpm for 40 minutes at 4° C. to remove cell debris. The supernatant was then transferred to a fresh cold low bind 1.5 mL tube for subsequent immunoprecipitation. For immunoprecipitation, protein lysates were incubated with antibody for the protein of interest (10 μg per mL lysate) or IgG control (Refer to Tables 4 and 5 for the list of antibodies used in this study), preincubated with Dynabeads Protein G, as per manufacturer's instructions (Life Technologies), with rotation overnight at 4° C. The following day, beads were washed three times in cold lysis buffer and separated on a magnetic rack. Proteins were then eluted from the beads by resuspension in 50 mM Glycine pH 2.8 and sodium dodecyl sulphate (SDS) sample buffer (0.2 M Tris-Cl, pH 6.8, 28% glycerol, 13.5% β-mercaptoethanol, 6% SDS, 6 mM EGTA, and 0.07% bromophenol blue) for 10 minutes at 70° C. and subjected to Western blot analysis, as described below, to detect various protein interactions. […]

ZNF827 full length = target: T2, ZNF827 full length (Homo sapiens, UniProt Q17R98 SEQ:1-1081); assay: EMSA; 0.8 mM ZnCl2, 100 mM KCl, poly(dI:dC), on ice; conditions: tags: HaloTag (pHTN), expressed in HEK 293T, tag removed by HaloTEV cleavage; label: 32P (gamma)
T2 sequence: B1 chain
Description: (§1) Purified proteins were quantified using a BCA assay using the Pierce™ BCA Protein Assay Kit according to the manufacturer's instructions. Equal amounts of purified proteins were incubated in binding buffer (20 mM HEPES-KOH, pH7.9, 100 mM KCl, 0.8 mM ZnCl₂, 0.2 mM EDTA, 5% glycerol, 0.5 mM DTT and 0.5 mM PMSF) with 6.25 μg/mL poly (dI:dC) and 50 ng/μL BSA on ice for 20 minutes. ˜0.12 nM (˜2.5 fmol) γ-³²P labelled DNA oligonucleotide (see Table 3) probes were added to samples and incubated on ice for another 30 minutes. Binding reactions were loaded onto an 8% native acrylamide/bisacrylamide (19:1, Biorad) gel pre-run at 100V in 0.5× TB buffer (89 mM Tris, 89 mM boric acid) for 20 minutes. Gels were electrophoresed at 150 V for 150 minutes at 4° C., dried at 65° C. for 45 minutes, and then exposed to a Phosphor screen overnight. Gel images were obtained by scanning the screens with a Typhoon FLA9500 Imager (GE Life Sciences).

ZNF827 ZnF4-9 deleted = target: T3, ZNF827 ZnF4-9 deleted (Homo sapiens); assay: as above; conditions: tags: HaloTag (pHTN), expressed in HEK 293T, tag removed by HaloTEV cleavage; label: 32P (gamma)
T3 chain: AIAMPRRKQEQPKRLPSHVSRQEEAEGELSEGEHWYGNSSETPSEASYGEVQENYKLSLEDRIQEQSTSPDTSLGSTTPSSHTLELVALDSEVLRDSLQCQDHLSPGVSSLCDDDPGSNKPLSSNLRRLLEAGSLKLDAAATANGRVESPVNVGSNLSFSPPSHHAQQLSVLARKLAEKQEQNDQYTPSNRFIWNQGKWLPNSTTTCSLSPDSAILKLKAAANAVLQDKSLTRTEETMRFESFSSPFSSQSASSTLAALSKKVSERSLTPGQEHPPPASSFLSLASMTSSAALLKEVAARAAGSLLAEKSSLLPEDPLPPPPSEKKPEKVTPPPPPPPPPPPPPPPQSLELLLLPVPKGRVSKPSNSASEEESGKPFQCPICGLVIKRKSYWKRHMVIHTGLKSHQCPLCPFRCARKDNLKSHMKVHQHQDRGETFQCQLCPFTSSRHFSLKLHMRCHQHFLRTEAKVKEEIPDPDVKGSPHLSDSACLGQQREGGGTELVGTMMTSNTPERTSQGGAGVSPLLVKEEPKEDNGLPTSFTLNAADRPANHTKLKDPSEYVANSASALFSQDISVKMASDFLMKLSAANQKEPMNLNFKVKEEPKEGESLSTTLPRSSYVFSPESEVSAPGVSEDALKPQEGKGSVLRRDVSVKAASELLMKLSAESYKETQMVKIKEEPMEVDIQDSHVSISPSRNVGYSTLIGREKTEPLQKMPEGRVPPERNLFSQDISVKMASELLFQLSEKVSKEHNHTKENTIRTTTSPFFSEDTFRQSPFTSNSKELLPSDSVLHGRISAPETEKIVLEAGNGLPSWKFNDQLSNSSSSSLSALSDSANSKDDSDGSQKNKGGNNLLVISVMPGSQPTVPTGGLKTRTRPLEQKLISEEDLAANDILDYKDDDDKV
Description: as §1

ZNF827 ZnF1-3 deleted = target: T4, ZNF827 ZnF1-3 deleted (Homo sapiens, UniProt Q17R98 SEQ:4-997); assay: EMSA; binding abrogated; conditions: tags: HaloTag (pHTN), expressed in HEK 293T, tag removed by HaloTEV cleavage; label: 32P (gamma)
T4 chain: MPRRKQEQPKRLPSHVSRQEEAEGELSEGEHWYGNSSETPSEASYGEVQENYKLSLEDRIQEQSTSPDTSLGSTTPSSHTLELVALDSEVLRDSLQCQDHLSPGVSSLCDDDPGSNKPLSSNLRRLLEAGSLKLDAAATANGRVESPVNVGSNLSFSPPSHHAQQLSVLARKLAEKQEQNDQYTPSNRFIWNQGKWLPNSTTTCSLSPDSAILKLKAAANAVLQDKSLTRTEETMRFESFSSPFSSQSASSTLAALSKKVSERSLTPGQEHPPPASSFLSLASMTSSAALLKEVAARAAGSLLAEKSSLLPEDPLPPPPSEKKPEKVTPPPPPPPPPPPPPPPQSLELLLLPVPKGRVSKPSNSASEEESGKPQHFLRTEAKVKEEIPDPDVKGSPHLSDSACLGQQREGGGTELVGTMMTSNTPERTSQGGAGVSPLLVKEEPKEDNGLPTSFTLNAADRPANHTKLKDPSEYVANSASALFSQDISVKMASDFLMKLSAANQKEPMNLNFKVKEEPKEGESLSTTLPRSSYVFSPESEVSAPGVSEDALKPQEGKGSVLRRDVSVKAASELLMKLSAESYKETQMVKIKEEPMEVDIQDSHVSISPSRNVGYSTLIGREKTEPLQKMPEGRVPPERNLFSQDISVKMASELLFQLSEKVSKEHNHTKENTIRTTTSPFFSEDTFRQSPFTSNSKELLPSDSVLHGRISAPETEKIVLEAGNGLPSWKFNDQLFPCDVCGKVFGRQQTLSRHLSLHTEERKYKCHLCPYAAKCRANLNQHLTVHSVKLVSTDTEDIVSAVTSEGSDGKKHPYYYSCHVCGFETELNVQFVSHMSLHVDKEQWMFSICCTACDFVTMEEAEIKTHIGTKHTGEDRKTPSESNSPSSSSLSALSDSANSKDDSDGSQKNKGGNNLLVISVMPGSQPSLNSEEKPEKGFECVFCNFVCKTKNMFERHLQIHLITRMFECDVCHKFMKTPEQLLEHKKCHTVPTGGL
Description: as §1

Binder | binding result [1] | binding result (ZNF827 full length) | binding result (ZNF827 ZnF4-9 deleted) | binding result (ZNF827 ZnF1-3 deleted)
B1 | binds |  |  | 
B2 |  | binds | binds | no binding
B3 |  | binds | binds | no binding
